Source: US20210340217A1, “NOVEL PEPTIDES AND COMBINATION OF PEPTIDES FOR USE IN IMMUNOTHERAPY AGAINST OVARIAN CANCER AND OTHER CANCERS” (Immatics Biotechnologies GmbH, priority 2017, published 2021)

How the values were obtained:
[1] = target: HLA-A*24:02 (Homo sapiens, UniProt P04439, D101N/D140Y/D185E/E176V/E190D/F33S/G103R/G107R/I119L/I121M/I306V/K335N/L105A/L180Q/L300P/N151K/N90K/Q86E/Q94H/R106L/R138H/R89G/T104I/T345S/V100E/W191G/Y123F); assay: MHC binding assay (UV-ligand exchange, beta2m ELISA); settings: peptide exchange yield
Procedure, shortened: (§1)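 Peptide–MHC complexes formed by UV-induced exchange of a UV-cleavable peptide for the test peptide. Exchange yield measured by streptavidin-capture ELISA detecting β2m (HRP anti-β2m, TMB, A450) on 100-fold diluted samples. Quantified against refolded HLA-A*02:01/MLA-001 standards (15-500 ng/ml).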

[2] = target: HLA-A*01:01 (Homo sapiens, UniProt P04439, A114D/A174V/A182V/D101N/D185E/E176A/E190D/L180R/Q94H/R68K/S129P/T187R/V100A/V91M/W191G); assay: as above; settings: peptide exchange yield
Procedure, shortened: as §1

[3] = target: HLA-A*02:01 (Homo sapiens, UniProt P04439, D140Y/D185E/D98H/E176V/E277Q/G131W/G231S/I119V/I121R/I166T/I218V/L300P/L318F/N151K/N90K/P208A/P217A/Q86G/Q94H/R138H/R169H/T345S); assay: as above; settings: peptide exchange yield
Procedure, shortened: as §1

[4] = system: CD8+ T cells; assay: In vitro immunogenicity for MHC class I presented peptides (in vitro priming of CD8+ T cells with aAPCs, pMHC multimer readout); type: cell-based, human
Method: In order to obtain information regarding the immunogenicity of the TUMAPs of the present invention, the inventors performed investigations using an in vitro T-cell priming assay based on repeated stimulations of CD8+ T cells with artificial antigen presenting cells (aAPCs) loaded with peptide/MHC complexes and anti-CD28 antibody. […]
Generation of pMHC/anti-CD28 coated beads, T-cell stimulations and readout was performed in a highly defined in vitro system using four different pMHC molecules per stimulation condition and 8 different pMHC molecules per readout condition. […]
800.000 beads/200 μl were coated in 96-well plates in the presence of 4×12.5 ng different biotin-pMHC, washed and 600 ng biotin anti-CD28 were added subsequently in a volume of 200 μl. […] For the pMHC multimer readout using 8 different pMHC molecules per condition, a two-dimensional combinatorial coding approach was used as previously described (Andersen et al., 2012) with minor modifications encompassing coupling to 5 different fluorochromes. […] Peptide specific cells were calculated as percentage of total CD8+ cells. […] In vitro priming of specific multimer+ CD8+ lymphocytes was detected by comparing to negative control stimulations.

Row | Peptide exchange [1] | Substance | other results
1 | ++++ (>75% = ++++) | 10 (RYSDSVGRVSF; listed as Homo sapiens) [compound 10] | –
2 | ++++ (>75% = ++++) | 11 (SYSDLHYGF; listed as Homo sapiens) [compound 11] | –
3 | ++++ (>75% = ++++) | 12 (KYEKIFEML; listed as Homo sapiens) [compound 12] | –
4 | ++++ (>75% = ++++) | 13 (VYTFLSSTL; listed as Homo sapiens) [compound 13] | –
5 | ++++ (>75% = ++++) | 14 (FYFPTPTVL; listed as Homo sapiens) [compound 14] | –
6 | ++++ (>75% = ++++) | 15 (VYHDDKQPTF; listed as Homo sapiens) [compound 15] | –
7 | ++++ (>75% = ++++) | 16 (IYSPQFSRL; listed as Homo sapiens) [compound 16] | –
8 | ++++ (>75% = ++++) | 17 (RFTTMLSTF; listed as Homo sapiens) [compound 17] | –
9 | ++++ (>75% = ++++) | 18 (KYPVHIYRL; listed as Homo sapiens) [compound 18] | –
10 | ++++ (>75% = ++++) | 19 (KYVKVFHQF; listed as Homo sapiens) [compound 19] | –
11 | – | 31 (LLDEGAMLLY; listed as Homo sapiens) [compound 31] | Peptide exchange [2]: ++++ (>75% = ++++)
12 | ++++ (>75% = ++++) | 76 (KYVAELSLL; listed as Homo sapiens) [compound 76] | –
13 | ++++ (>75% = ++++) | 77 (RYGPVFTV; listed as Homo sapiens) [compound 77] | –
14 | ++++ (>75% = ++++) | 78 (SFAPRSAVF; listed as Homo sapiens) [compound 78] | –
15 | ++++ (>75% = ++++) | 79 (SYNEHWNYL; listed as Homo sapiens) [compound 79] | –
16 | +++ (>50 = +++) | 80 (TAYMVSVAAF; listed as Homo sapiens) [compound 80] | –
17 | ++++ (>75% = ++++) | 81 (VYNHTTRPL; listed as Homo sapiens) [compound 81] | –
18 | ++++ (>75% = ++++) | 82 (SYFRGFTLI; listed as Homo sapiens) [compound 82] | –
19 | – | 112 (TVTGAEQIQY; listed as Homo sapiens) [compound 112] | Peptide exchange [2]: ++ (>20% = ++)

Row | Peptide exchange [1] | Substance | other results
20 | – | 113 (QLDSNRLTY; listed as Homo sapiens) [compound 113] | Peptide exchange [2]: +++ (>50 = +++)
21 | – | 114 (VMEQSAGIMY; listed as Homo sapiens) [compound 114] | Peptide exchange [2]: ++ (>20% = ++)
22 | – | 115 (FVDNQYWRY; listed as Homo sapiens) [compound 115] | Peptide exchange [2]: +++ (>50 = +++)
23 | – | 116 (VLLDEGAMLLY; listed as Homo sapiens) [compound 116] | Peptide exchange [2]: ++ (>20% = ++)
24 | – | 242 (STIPALHEI; listed as Homo sapiens) [compound 242] | Peptide exchange [3]: +++ (>50 = +++)
25 | – | 243 (YASEGVKQV; listed as Homo sapiens) [compound 243] | Peptide exchange [3]: +++ (>50 = +++)
26 | – | 244 (DTDSSVHVQV; listed as Homo sapiens) [compound 244] | Peptide exchange [3]: + (>10% = +)
27 | ++++ (>75% = ++++) | 246 (RYLAVVHAVF; listed as Homo sapiens) [compound 246] | –
28 | ++++ (>75% = ++++) | 249 (VYTPTLGTL; listed as Homo sapiens) [compound 249] | –
29 | +++ (>50 = +++) | 252 (LYQPRASEM; listed as Homo sapiens) [compound 252] | –
30 | +++ (>50 = +++) | 255 (VFVSFSSLF; listed as Homo sapiens) [compound 255] | –
31 | – | 288 (SPVTSVHGGTY; listed as Homo sapiens) [compound 288] | Peptide exchange [2]: ++ (>20% = ++)
32 | – | 289 (RWEKTDLTY; listed as Homo sapiens) [compound 289] | Peptide exchange [2]: ++ (>20% = ++)
33 | – | 290 (DMDEEIEAEY; listed as Homo sapiens) [compound 290] | Peptide exchange [2]: ++ (>20% = ++)
34 | – | 291 (ETIRSVGYY; listed as Homo sapiens) [compound 291] | Peptide exchange [2]: +++ (>50 = +++)
35 | – | 292 (NVTMKVVSVLY; listed as Homo sapiens) [compound 292] | Peptide exchange [2]: +++ (>50 = +++)
36 | – | 773 (ALYGKLLKL; listed as Homo sapiens) [compound 773] | Wells positive [%] [4]: +++ (50%-69% = +++)
37 | – | 774 (VYVDDIYVI; listed as Homo sapiens) [compound 774] | Wells positive [%] [4]: +++ (50%-69% = +++)
